From ChEMBL document CHEMBL4261651, “Probing the ligand preferences of the three types of bacterial pantothenate kinase” (Bioorg Med Chem, 2018)

Tests used:
[1] = compound: CCCCCn1cc(CNC(=O)[C@H](O)C(C)(C)CO)nn1; assay: (§1) Substrate activity at N-terminal His6-tagged Staphylococcus aureus PanK2 expressed in Escherichia coli BL21(DE3) cells assessed as Kcat in presence of ATP/NADH by pyruvate kinase/lactate dehydrogenase enzyme coupled assay
[2] = compound: COC(=O)CNC(=O)[C@H](O)C(C)(C)CO; assay: as §1
[3] = compound: CC(C)(CO)[C@@H](O)C(=O)NCCCC(=O)O; assay: as §1
[4] = compound: CCCCn1cc(CCNC(=O)[C@H](O)C(C)(C)CO)nn1; assay: as §1
[5] = compound: CCCCCn1cc(CCNC(=O)[C@H](O)C(C)(C)CO)nn1; assay: as §1
[6] = compound: CC(C)(CO)[C@@H](O)C(=O)NCCC(=O)O; assay: as §1
[7] = compound: CC(C)(CO)[C@@H](O)C(=O)NCc1cn(CCc2ccccc2)nn1; assay: as §1
[8] = compound: CCCCCc1cn(CCNC(=O)[C@H](O)C(C)(C)CO)nn1; assay: as §1
[9] = compound: CCCc1cn(CCCNC(=O)[C@H](O)C(C)(C)CO)nn1; assay: as §1
[10] = compound: CCCCCNC(=O)CCNC(=O)[C@H](O)C(C)(C)CO; assay: as §1
[11] = compound: CCCCCn1cc(CNC(=O)[C@H](O)C(C)(C)CO)nn1; assay: (§2) Substrate activity at N-terminal His6-tagged Staphylococcus aureus PanK2 expressed in Escherichia coli BL21(DE3) cells assessed as Km in presence of ATP/NADH by pyruvate kinase/lactate dehydrogenase enzyme coupled assay
[12] = compound: COC(=O)CNC(=O)[C@H](O)C(C)(C)CO; assay: as §2
[13] = compound: CC(C)(CO)[C@@H](O)C(=O)NCCCC(=O)O; assay: as §2
[14] = compound: CCCCn1cc(CCNC(=O)[C@H](O)C(C)(C)CO)nn1; assay: as §2
[15] = compound: CCCCCn1cc(CCNC(=O)[C@H](O)C(C)(C)CO)nn1; assay: as §2
[16] = compound: CC(C)(CO)[C@@H](O)C(=O)NCCC(=O)O; assay: as §2
[17] = compound: CC(C)(CO)[C@@H](O)C(=O)NCc1cn(CCc2ccccc2)nn1; assay: as §2
[18] = compound: CCCCCc1cn(CCNC(=O)[C@H](O)C(C)(C)CO)nn1; assay: as §2
[19] = compound: CCCc1cn(CCCNC(=O)[C@H](O)C(C)(C)CO)nn1; assay: as §2
[20] = compound: CCCCCNC(=O)CCNC(=O)[C@H](O)C(C)(C)CO; assay: as §2
[21] = compound: CC(C)(CO)[C@@H](O)C(=O)NCCCC(=O)O; assay: (§3) Substrate activity at Pseudomonas aeruginosa PanK3 expressed in Escherichia coli BL21(DE3) cells assessed as Kcat in presence of ATP/NADH by pyruvate kinase/lactate dehydrogenase enzyme coupled assay
[22] = compound: CC(C)(CO)[C@@H](O)C(=O)NCCC(=O)O; assay: as §3
[23] = compound: O=C(O)CCNC(=O)[C@H](O)CCO; assay: as §3
[24] = compound: CC(C)(CO)[C@@H](O)C(=O)NCCCC(=O)O; assay: (§4) Substrate activity at Pseudomonas aeruginosa PanK3 expressed in Escherichia coli BL21(DE3) cells assessed as Km in presence of ATP/NADH by pyruvate kinase/lactate dehydrogenase enzyme coupled assay
[25] = compound: CC(C)(CO)[C@@H](O)C(=O)NCCC(=O)O; assay: as §4
[26] = compound: O=C(O)CCNC(=O)[C@H](O)CCO; assay: as §4

B1: Type II pantothenate kinase (Staphylococcus aureus (strain MSSA476)), Q6G7I0 (protein)
chain: MKVGIDAGGTLIKIVQEQDNQRTFKTELTKNIDQVVEWLNQQQIEKLCLTGGNAGVIAENINIPAQIFVEFDAASQGLGILLKEQGHDLADYIFANVGTGTSLHYFDGQSQRRVGGIGTGGGMIQGLGYLLSQITDYKQLTDMAQHGDRNTIDLKVRHIYKDTEPPIPGDLTAANFGHVLHHLDADFTPSNKLAAVIGVVGEVVTTMAITVAREFKTENIVYIGSSFHNNALLRKVVEDYTVLRGCKPYYVENGAFSGAIGALYLEK
In the case of B1, the kcat [1] is reported as 3.4 s⁻¹, the kcat [2] is reported as 4 s⁻¹ and the kcat [3] is reported as 3.4 s⁻¹. For the same protein, the kcat [4] was 0.82 s⁻¹, the kcat [5] was 0.73 s⁻¹ and the kcat [6] was 2.16 s⁻¹. It also gave a kcat [7] of 4.7 s⁻¹, a kcat [8] of 0.82 s⁻¹ and a kcat [9] of 7.6 s⁻¹. The kcat [10] was 0.44 s⁻¹, the Km [11] was 64 µM and the Km [12] was 36 µM. The Km [13] was 60 µM, the Km [14] was 7.1 µM and the Km [15] was 6.8 µM. It also gave a Km [16] of 19 µM, a Km [17] of 126 µM and a Km [18] of 8.5 µM. The Km [19] was 369 µM and the Km [20] was less than 1.5 µM.

B2: Type III pantothenate kinase (Pseudomonas aeruginosa (strain ATCC 15692 / DSM 22644 / CIP 104116 /JCM 14847 / LMG 12228 / 1C / PRS 101 / PAO1)), Q9HWC1 (protein)
chain: MILELDCGNSLIKWRVIEGAARSVAGGLAESDDALVEQLTSQQALPVRACRLVSVRSEQETSQLVARLEQLFPVSALVASSGKQLAGVRNGYLDYQRLGLDRWLALVAAHHLAKKACLVIDLGTAVTSDLVAADGVHLGGYICPGMTLMRSQLRTHTRRIRYDDAEARRALASLQPGQATAEAVERGCLLMLRGFVREQYAMACELLGPDCEIFLTGGDAELVRDELAGARIMPDLVFVGLALACPIE
For B2, the kcat [21] was 0.98 s⁻¹, the kcat [22] was 0.39 s⁻¹ and the kcat [23] was 0.32 s⁻¹. The Km [24] was 683 µM, the Km [25] was 20 µM and the Km [26] was 64 µM.
